This test has as its target double Tudor domains of JMJD2A. Kind of test: ITC; reader domains (BPTF, RAG2, ZCWPW1, SGF29, JMJD2A) titrated with H3 peptides; 25°C; One Set of Binding Sites model.

What is called Kd is the concentration at which binding is half-saturated.

Turning to “H3_(1–20) K4me3 peptide (from UniProt P68431 2-21)”, the Kd was 600 nM.

“H3_(1–20) “K4me3-K9me3” peptide (from UniProt P68431 2-21)” gave an equilibrium dissociation constant (Kd) of 900 nM.

Values taken from publication PMC7864079, “Molecular basis for histone H3 “K4me3-K9me3/2” methylation pattern readout by Spindlin1” (The Journal of Biological Chemistry, 2021).
